Values of other authors, collected in paper PMC7017177.

Target: CTLA-4 (Homo sapiens) (UniProt P16410)
UniProt P16410, sequence (P16410 36-161): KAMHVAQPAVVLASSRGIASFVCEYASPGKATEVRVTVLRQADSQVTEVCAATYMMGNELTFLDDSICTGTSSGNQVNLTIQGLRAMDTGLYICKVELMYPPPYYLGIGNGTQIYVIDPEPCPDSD

Kd: 0.28 nM
Substance: Tremelimumab
